Laboratory results published in patent US20070161569A1 (GENERAL HOSPITAL, published 2007).
Several values for one entry are separate records, joined by “and”; a condition that tells them apart may be missing. Equal entries are not always repeated. Non-standard residues stand in square brackets, D forms with d. No end group written: not given here. hArg = N=C(N)NCCCC[C@H](N)C(=O)O; Ac5c = NC1(C(=O)O)CCCC1; Deg = CCC(N)(CC)C(=O)O; Ac3c = NC1(C(=O)O)CC1; Aib = CC(C)(N)C(=O)O

Key:
[1] = molecular target: T1, recombinant P1R chimera expressed in HKRK-B28 cells (opossum P1R from the N-terminus to the mid region of … (opossum; rat, UniProt P25107 27-288; P25961 295-591, limits assumed); experiment: competition binding on B28 cells against 125I-PTH(1-21) tracer (SEQ ID NO 36)
T1 construct: domain: N-terminus to the mid region of TM3;domain: mid region of TM3 to the C-terminus; also called PTH-1 receptor; receptor of HKRK-B28 cells
Method: (§1) Competition Binding. Binding reactions were performed with HKRK-B28 cells or in COS-7 cells in 24-well plates. The cells were rinsed with 0.5 mL of binding buffer, and then treated successively with 100 μL binding buffer, 100 μL of binding buffer containing various amounts of unlabeled competitor ligand, and 100 μL of binding buffer containing ca. 100,000 cpm of ¹²⁵I-[Aib^{1,3},Nle⁸,Gln¹⁰,Har¹¹,Ala¹²,Trp¹⁴,Arg¹⁹,Tyr²¹]rPTH(1-21) (SEQ. ID. NO. 36) (ca. 26 fmol; final volume=300 μL). Incubations were 4 to 6 h at 4° C., at which time near equilibrium conditions were attained. Cells were then placed on ice, the binding medium was removed, and the monolayer was rinsed three times with 0.5 mL of cold binding buffer. The cells were subsequently lysed with 0.5 mL 5N NaOH and counted for radioactivity. For each tracer and in each experiment, the non-specific binding was determined as the radioactivity that bound in the presence of the same unlabeled peptide at a concentration of 1 μM, and was ˜1% of total radioactivity added for each tracer. The maximum specific binding (B₀) was the total radioactivity bound in the absence of competing ligand, corrected for nonspecific binding, and for each tracer, ranged from 8% to 20% of the total radioactivity added. Nonlinear regression was used to calculate binding IC₅₀ values (see below). Scatchard transformations of homologous competition binding data derived from studies with 26 fmol of ¹²⁵I-[Aib^{1,3},Nle⁸,Gln¹⁰,Har¹¹,Ala¹²,Trp¹⁴, Arg¹⁹,Tyr²¹]rPTH(1-21) (SEQ. ID. NO. 36) were employed for estimations of apparent equilibrium dissociation constant (kDapps) and total number of ligand binding sites (Bₘₐₓ), assuming a single class of binding sites and equal affinities of the iodinated and non iodinated ligand.

[2] = molecular target: T1, recombinant P1R chimera expressed in …; experiment: competition binding on HKRK-B28 cells against 125I-PTH(1-21) tracer (SEQ ID NO 36)
Method: as §1, with “Incubations” for “Competition Binding. Binding reactions were performed with HKRK-B28 cells or in COS-7 cells in 24-well plates. The cells were rinsed with 0.5 mL of binding buffer, and then treated successively with 100 μL binding buffer, 100 μL of binding buffer containing various amounts of unlabeled competitor ligand, and 100 μL of binding buffer containing ca. 100,000 cpm of ¹²⁵I-[Aib^{1,3},Nle⁸,Gln¹⁰,Har¹¹,Ala¹²,Trp¹⁴,Arg¹⁹,Tyr²¹]rPTH(1-21) (SEQ. ID. NO. 36) (ca. 26 fmol; final volume=300 μL). Incubations”, “ligand. […]” for “ligand.”

[3] = molecular target: T1, recombinant P1R chimera expressed in …; experiment: cell-based or functional assay
[4] = molecular target: T2, P1R-delNt, a recombinant human PTH-1 receptor construct in which most of the amino-terminal extracellular … (human, UniProt Q03431 23-593, limits assumed); experiment: cell-based or functional assay
T2 sequence (looked up): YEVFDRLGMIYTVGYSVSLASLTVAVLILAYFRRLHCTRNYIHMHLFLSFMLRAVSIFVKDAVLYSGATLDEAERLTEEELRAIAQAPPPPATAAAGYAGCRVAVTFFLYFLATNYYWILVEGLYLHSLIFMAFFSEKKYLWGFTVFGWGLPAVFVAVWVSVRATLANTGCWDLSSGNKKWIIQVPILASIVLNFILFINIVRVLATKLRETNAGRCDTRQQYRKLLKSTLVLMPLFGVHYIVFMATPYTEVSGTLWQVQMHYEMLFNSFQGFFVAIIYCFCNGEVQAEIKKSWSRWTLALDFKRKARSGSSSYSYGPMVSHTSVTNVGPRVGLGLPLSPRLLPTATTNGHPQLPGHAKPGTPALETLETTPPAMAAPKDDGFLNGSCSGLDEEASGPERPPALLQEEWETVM

T1 sequence (P25107 other isoform, or with tags, fused parts or gaps limits assumed): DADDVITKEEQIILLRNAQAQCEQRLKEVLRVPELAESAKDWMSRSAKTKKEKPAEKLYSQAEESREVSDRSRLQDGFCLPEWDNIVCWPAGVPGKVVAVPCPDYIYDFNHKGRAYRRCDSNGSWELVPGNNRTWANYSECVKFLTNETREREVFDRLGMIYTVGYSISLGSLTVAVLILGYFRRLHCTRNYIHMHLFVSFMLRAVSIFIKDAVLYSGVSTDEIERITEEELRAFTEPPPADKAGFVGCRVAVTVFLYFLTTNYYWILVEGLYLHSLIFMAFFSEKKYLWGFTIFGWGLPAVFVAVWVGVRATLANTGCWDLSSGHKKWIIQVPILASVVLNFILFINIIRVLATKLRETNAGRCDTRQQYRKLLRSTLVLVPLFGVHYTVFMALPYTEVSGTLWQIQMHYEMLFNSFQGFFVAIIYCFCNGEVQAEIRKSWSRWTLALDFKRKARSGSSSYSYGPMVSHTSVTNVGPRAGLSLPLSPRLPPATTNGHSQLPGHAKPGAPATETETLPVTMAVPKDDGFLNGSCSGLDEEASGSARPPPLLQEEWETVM

B1: [Ala^1,3,12,Gln^10,Har^11,Trp^14]PTH(1-14)NH2 (peptide)
peptide: AVAEIQLMHQ[hArg]AKW-NH2
modifications: N-terminus assumed
SMILES: CC[C@H](C)[C@H](NC(=O)[C@H](CCC(=O)O)NC(=O)[C@H](C)NC(=O)[C@@H](NC(=O)[C@H](C)N)C(C)C)C(=O)N[C@@H](CCC(N)=O)C(=O)N[C@@H](CC(C)C)C(=O)N[C@@H](CCSC)C(=O)N[C@@H](Cc1c[nH]cn1)C(=O)N[C@@H](CCC(N)=O)C(=O)N[C@@H](CCCCNC(=N)N)C(=O)N[C@@H](C)C(=O)N[C@@H](CCCCN)C(=O)N[C@@H](Cc1c[nH]c2ccccc12)C(N)=O
notes: also called [M]PTH(1-14); parent
- IC50 [1]: ~3000 nM
- IC50 [2]: 27000 nM
- cAMP accumulation potency (EC50) in HKRK-B28 cells [3]: 220 nM
- cAMP potency (EC50) [3]: 200 nM

B2: [Ac5c^1,M]PTH(1-14) (peptide)
peptide: [Ac5c]VAEIQLMHQ[hArg]AKW-NH2
modifications: N-terminus assumed
SMILES: CC[C@H](C)[C@H](NC(=O)[C@H](CCC(=O)O)NC(=O)[C@H](C)NC(=O)[C@@H](NC(=O)C1(N)CCCC1)C(C)C)C(=O)N[C@@H](CCC(N)=O)C(=O)N[C@@H](CC(C)C)C(=O)N[C@@H](CCSC)C(=O)N[C@@H](Cc1c[nH]cn1)C(=O)N[C@@H](CCC(N)=O)C(=O)N[C@@H](CCCCNC(=N)N)C(=O)N[C@@H](C)C(=O)N[C@@H](CCCCN)C(=O)N[C@@H](Cc1c[nH]c2ccccc12)C(N)=O
notes: also called Ac5c (position 1) analog; Ac5c^1 modification
- fold improved affinity relative to the parent [M]PTH(1-14) [1]: 50 fold
- cAMP accumulation, fold more potent than the parent analog [3]: 61 fold
- cAMP potency, fold improvement relative to parent [M]PTH(1-14) [3]: ~35 fold

B3: [M]PTH(1-14) analog in which alanine-3 is substituted with α,α-diethylglycine (Deg) (peptide)
peptide: H-AV[Deg]EIQLMHQ[hArg]AKW-NH2
SMILES: CC[C@H](C)[C@H](NC(=O)[C@H](CCC(=O)O)NC(=O)C(CC)(CC)NC(=O)[C@@H](NC(=O)[C@H](C)N)C(C)C)C(=O)N[C@@H](CCC(N)=O)C(=O)N[C@@H](CC(C)C)C(=O)N[C@@H](CCSC)C(=O)N[C@@H](Cc1c[nH]cn1)C(=O)N[C@@H](CCC(N)=O)C(=O)N[C@@H](CCCCNC(=N)N)C(=O)N[C@@H](C)C(=O)N[C@@H](CCCCN)C(=O)N[C@@H](Cc1c[nH]c2ccccc12)C(N)=O
notes: also called Deg^3-containing analog; Deg-3
- IC50 [1]: ~3000 nM
- fold improved affinity relative to the parent [M]PTH(1-14) [1]: ~1.5 fold
- cAMP-stimulating potency, fold diminished against the parent analog [3]: ~10 fold
- signaling potency, fold diminished relative to parent [M]PTH(1-14) [3]: ~40 fold

B4: [Ac5c^1,Aib^3,Gln^10]PTH(1-10)NH2 (peptide)
peptide: [Ac5c]V[Aib]EIQLMHQ-NH2
modifications: N-terminus assumed
SMILES: CC[C@H](C)[C@H](NC(=O)[C@H](CCC(=O)O)NC(=O)C(C)(C)NC(=O)[C@@H](NC(=O)C1(N)CCCC1)C(C)C)C(=O)N[C@@H](CCC(N)=O)C(=O)N[C@@H](CC(C)C)C(=O)N[C@@H](CCSC)C(=O)N[C@@H](Cc1c[nH]cn1)C(=O)N[C@@H](CCC(N)=O)C(N)=O
- cAMP EC50 in HKRK-B28 cells [3]: ~3000 nM
- increase in cAMP levels relative to basal, peptide at 10 µM, HKRK-B28 cells [3]: 33 fold
- cAMP EC50 in LdelNt-2 cells [4]: ~40000 nM and 37000 nM

B5: [Ac3c^1,M]PTH(1-14) (peptide)
peptide: [Ac3c]VAEIQLMHQ[hArg]AKW-NH2
modifications: N-terminus assumed
SMILES: CC[C@H](C)[C@H](NC(=O)[C@H](CCC(=O)O)NC(=O)[C@H](C)NC(=O)[C@@H](NC(=O)C1(N)CC1)C(C)C)C(=O)N[C@@H](CCC(N)=O)C(=O)N[C@@H](CC(C)C)C(=O)N[C@@H](CCSC)C(=O)N[C@@H](Cc1c[nH]cn1)C(=O)N[C@@H](CCC(N)=O)C(=O)N[C@@H](CCCCNC(=N)N)C(=O)N[C@@H](C)C(=O)N[C@@H](CCCCN)C(=O)N[C@@H](Cc1c[nH]c2ccccc12)C(N)=O
- cAMP accumulation, fold more potent than the parent analog [3]: ~2 fold

B6: [Deg^1,M]PTH(1-14) (peptide)
peptide: [Deg]VAEIQLMHQ[hArg]AKW-NH2
modifications: N-terminus assumed
SMILES: CC[C@H](C)[C@H](NC(=O)[C@H](CCC(=O)O)NC(=O)[C@H](C)NC(=O)[C@@H](NC(=O)C(N)(CC)CC)C(C)C)C(=O)N[C@@H](CCC(N)=O)C(=O)N[C@@H](CC(C)C)C(=O)N[C@@H](CCSC)C(=O)N[C@@H](Cc1c[nH]cn1)C(=O)N[C@@H](CCC(N)=O)C(=O)N[C@@H](CCCCNC(=N)N)C(=O)N[C@@H](C)C(=O)N[C@@H](CCCCN)C(=O)N[C@@H](Cc1c[nH]c2ccccc12)C(N)=O
- cAMP accumulation, fold more potent than the parent analog [3]: 11 fold

B7: [M]PTH(1-14) analog in which alanine-3 is substituted with 1-aminocyclopentane-1-carboxylic acid (Ac5c) (peptide)
peptide: AV[Ac5c]EIQLMHQ[hArg]AKW-NH2
modifications: N-terminus assumed
SMILES: CC[C@H](C)[C@H](NC(=O)[C@H](CCC(=O)O)NC(=O)C1(NC(=O)[C@@H](NC(=O)[C@H](C)N)C(C)C)CCCC1)C(=O)N[C@@H](CCC(N)=O)C(=O)N[C@@H](CC(C)C)C(=O)N[C@@H](CCSC)C(=O)N[C@@H](Cc1c[nH]cn1)C(=O)N[C@@H](CCC(N)=O)C(=O)N[C@@H](CCCCNC(=N)N)C(=O)N[C@@H](C)C(=O)N[C@@H](CCCCN)C(=O)N[C@@H](Cc1c[nH]c2ccccc12)C(N)=O
notes: also called Ac5c^3-containing analog; Ac5c-3
- IC50 [1]: ~3000 nM
- cAMP-stimulating potency, fold increase over the parent analog [3]: < 2 fold

B8: [Ac5c^1,Aib^3]PTH(1-9)NH2 (peptide)
peptide: [Ac5c]V[Aib]EIQLMH-NH2
modifications: N-terminus assumed
SMILES: CC[C@H](C)[C@H](NC(=O)[C@H](CCC(=O)O)NC(=O)C(C)(C)NC(=O)[C@@H](NC(=O)C1(N)CCCC1)C(C)C)C(=O)N[C@@H](CCC(N)=O)C(=O)N[C@@H](CC(C)C)C(=O)N[C@@H](CCSC)C(=O)N[C@@H](Cc1c[nH]cn1)C(N)=O
- increase in cAMP levels relative to basal, peptide at 1×10^-4M [3]: 6 fold

B9: [Aib^1,3,Gln^10]PTH(1-10)NH2 (peptide)
peptide: [Aib]V[Aib]EIQLMHQ-NH2
modifications: N-terminus assumed
SMILES: CC[C@H](C)[C@H](NC(=O)[C@H](CCC(=O)O)NC(=O)C(C)(C)NC(=O)[C@@H](NC(=O)C(C)(C)N)C(C)C)C(=O)N[C@@H](CCC(N)=O)C(=O)N[C@@H](CC(C)C)C(=O)N[C@@H](CCSC)C(=O)N[C@@H](Cc1c[nH]cn1)C(=O)N[C@@H](CCC(N)=O)C(N)=O
- increase in cAMP accumulation, peptide at 1×10^-4M [3]: 2 fold

B10: [Aib^1,3,Gln^10,Har^11,Ala^12,Trp^14]PTH(1-14)NH2 (peptide)
peptide: [Aib]V[Aib]EIQLMHQ[hArg]AKW-NH2
modifications: N-terminus assumed
SMILES: CC[C@H](C)[C@H](NC(=O)[C@H](CCC(=O)O)NC(=O)C(C)(C)NC(=O)[C@@H](NC(=O)C(C)(C)N)C(C)C)C(=O)N[C@@H](CCC(N)=O)C(=O)N[C@@H](CC(C)C)C(=O)N[C@@H](CCSC)C(=O)N[C@@H](Cc1c[nH]cn1)C(=O)N[C@@H](CCC(N)=O)C(=O)N[C@@H](CCCCNC(=N)N)C(=O)N[C@@H](C)C(=O)N[C@@H](CCCCN)C(=O)N[C@@H](Cc1c[nH]c2ccccc12)C(N)=O
- cAMP EC50 in LdelNt-2 cells [4]: 6.4 nM
